Test system: MS2 coat protein
Test: apparent KD of MS2 coat protein; designed switch direction (-1 OFF switch, 1 ON switch): -1; higher = weaker reporter binding
Procedure, shortened: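 Designed RNA switches were transcribed on Illumina chips by stalled E. coli RNA polymerase and titrated with SNAP-549-labelled MS2 coat protein from 0.7 or 1.5 nM, doubling to 3 µM. Step length ran from 0.8–1.5 h at the lowest concentration to 10–20 min at the highest. The apparent KD is the median over clusters for each design, from curve-fitted normalised cluster fluorescence.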

[1] = Eterna round: R95, input ligand: FMN 200 uM
[2] = Eterna round: R95, input ligand: microRNA oligo, concentration not stated
[3] = Eterna round: R95, input ligand: none
[4] = input ligand: microRNA oligo, concentration not stated

Sequence | apparent KD of MS2 coat protein [1] | apparent KD of MS2 coat protein [2] | apparent KD of MS2 coat protein [3] | apparent KD of MS2 coat protein (input ligand: FMN 200 uM) | apparent KD of MS2 coat protein [4] | apparent KD of MS2 coat protein (input ligand: none)
GCAGGCGUCUUGGCUCGUCUUAUUUGGAGAGGAUUGAUAACAUGAGGAUCACCCAUGUGUGUGGGAGAGUUGCAGUG [JR_SV3TOV2_Sub017] (puzzle: Sensor v3, turn-off variant 2) | 293 nM | 203 nM | 374 nM | – | – | –
AAUAUACAUGUAGGAUAUCUGCACGAUUAGUGCAGAGAAGGACAUGAGGAUCACCCAUGUAAUUAAGAUCAAUUAUUAAAUAUU [ENG1/3-B1] (Eterna round: R96, puzzle: Exclusion NG 1) | – | – | – | 327 nM | 46.9 nM | 46.6 nM
CGUUGGUCAGGAUAUGGUGGGCUGGUCGCGCGGCCGGGUGGCUAGAAGGGACAUGAGGAUCACCCAUGUACGGC [excls4-IX] (Eterna round: R96, puzzle: Exclusion 4) | – | – | – | 60.3 nM | 30.1 nM | 48.9 nM
UUUUUCGAACAAGCUACGUACAUGAGGAUCACCCAUGUUGGUAGAUUUGAGUAGGUUUGGAUGGAAGCUCGUCUUAU [JR_SV3TOV1_Sub083] (puzzle: Sensor v3, turn-off variant 1) | 19.2 nM | 44.5 nM | 21.4 nM | – | – | –
CCCAGUUAUUCAGGAUAUUGUACAUGAGGAUCACCCAUGUAAUAAAUGAGGAUUUCGGGUGUCUACAAGAAGGGAAGGAUAGGC [Ostracism 19 - Jieux - Exclusion NG 2] (Eterna round: R96, puzzle: Exclusion NG 2) | – | – | – | 26.5 nM | 23.8 nM | 29.3 nM
AAGUACCGUCACGAUAGUGAUGGUACAACAAGCAGGUGAACAUGAGGAUCACCCAUGUCCUCAAUUGCUCGUCUUAU [Sensor 3 - 73] (puzzle: Sensor v3, turn-off variant 2) | 156 nM | 48.3 nM | 159 nM | – | – | –
AUAAUACAUGAGGAUCACCCAUGUGAGGAUAUACGACUCCAACCUAACAGCUUGGACCGUAGAAGGCACAAGGG [Exclusion 1 (MOD1.2 Esqu)] (Eterna round: R97, puzzle: Exclusion 1) | – | – | – | 54.5 nM | – | 261 nM
AAAAAGCGAGGAUAUGCAUAAGGACCCGGGAGGGAAAUCAAACAUGAGGAUCACCCAUGUAGAAGGCGCAAAAA [Exclss2-III] (puzzle: Exclusion 2) | – | 18.2 nM | – | – | – | –
AGUAACCGUCACGAAAGUGAUGGUUACACAAGUGUAAUAACAUGAGGAUCACCCAUGUCCUCAUUUGCUCGUUUUAU [Sensor 3 - 37] (puzzle: Sensor v3, turn-off variant 2) | 45.1 nM | 144 nM | 140 nM | – | – | –
GGUCGACAUGAGGAUCACCCAUGUCAGGAUAUCGUCACUGGAGCUUCGGCUCCAGUGACGAGAAGGGACAUAAU [E1/14-A1] (Eterna round: R97, puzzle: Exclusion 1) | – | – | – | 39.5 nM | – | 39.2 nM
CGGCAAUCCUAGGAUAUGCUAGACGAGAGUCUAGCAGAAGGAGGAACAUGAGGAUCACCCAUGUGUCCUAGCCG [Mat - Exclusion 6 - Eli Mod - D15] (Eterna round: R97, puzzle: Exclusion 6) | – | – | – | 22.1 nM | – | 15.6 nM
CCCGGGUCAGGAUAUGGGCCCGGGCCCGAAAGGGCCCGGGCCCAGAAGGGACAUGAGGAUCACCCAUGUCCGGG [-53.1, -50.9 kcal, 20% A] (Eterna round: R97, puzzle: Exclusion 4) | – | – | – | 26.7 nM | – | 24.3 nM
GUGUACAGAGGAUAUGCACGAGUAGUUACGAAAGUAACUACACAUGAGGAUCACCCAUGUAGAAGGCUGUACAC [Dot plot directed v1] (puzzle: Exclusion 2) | – | 13.3 nM | – | – | – | –
GUGGAACAUGAGGAUCACCCAUGUGAGGAUAUGUGAGAAGGAUUUGAGAUGGAGAGGGACAGAAGGCACUAGGA [JR_Exclu1_Sub083] (puzzle: Exclusion 1) | 36.3 nM | 39.4 nM | 55.8 nM | – | – | –
AGCCCUUGUGUCAGGAUAUGCAUCCUUAAAGGACGGCAGAAGGGACAUGAGGAUCACCCAUGUAAAUAGAAAUU [Onatatge] (puzzle: Brourd's mod of Exclusion 4) | 16.2 nM | 84 nM | 141 nM | – | – | –
AGCCCUGCAGGAUAUGCCCGGGAUAACAUGAGGAUCACCCAUGUGACCGAUUGUUAUUCUGCAGAAGGGCAUGGGA [JL-EX5-4.17 ViennaUCT mod] (Eterna round: R97, puzzle: Exclusion 5) | – | – | – | 228 nM | – | 235 nM
GGAUCGUAUGUCAGGAUAUACCACUGGAUACAGUGGUAGAAGGGACAUGAGGAUCACCCAUGUUCUAUCGAUCC [Fiskers BMX 4 - 53] (puzzle: Brourd's mod of Exclusion 4) | – | 12.5 nM | – | – | – | –
AAUAAUAAGGAGGAUAUCGUAUCCGAAAGGAUACGAGAAGGCCUAACAUGAGGAUCACCCAUGUUCCUCAAUAA [Mat - Exclusion 6 - Eli Mod - D54] (puzzle: Exclusion 6) | 773 nM | 264 nM | 267 nM | – | – | –

Sequence | apparent KD of MS2 coat protein [1] | apparent KD of MS2 coat protein [2] | apparent KD of MS2 coat protein [3] | apparent KD of MS2 coat protein (input ligand: FMN 200 uM) | apparent KD of MS2 coat protein [4] | apparent KD of MS2 coat protein (input ligand: none)
GGUAGGUGUGACUUGGGUGACAUGAGGAUCACCCAUGUCACAAGCUUGUUGCUCGCCUUGUAGUUAACCCAUGUCAC [LRO Sensor-off var1-30 mod of Stov1-13-A1 by Brourd] (Eterna round: R97, puzzle: Sensor, turn-off variant 1) | – | – | – | 34.1 nM | – | 34.5 nM
CGGUGUAGAGGAUAUACGUGGAUAUAAGAACAUGAUAAUUUACAUGAGGAUCACCCAUGUAGAAGGCUAUAGCG [JR_Ex2_Sub080] (Eterna round: R97, puzzle: Exclusion 2) | – | – | – | 74.8 nM | – | 207 nM
GUGGUACAUGAGGAUCACCCAUGUGAGGAUAUAGUCGGCUGGUGGUCGCGGGUGGUGGCUAGAAGGUGCGUGCG [-19.3, -16.9 kcal, A 18%] (Eterna round: R97, puzzle: Exclusion 1) | – | – | – | 171 nM | – | 179 nM
CGUACUGAAGUGAGGAUAUUGUCUCGGAUACGAAACAAGAAGGCACAUGAGGAUCACCCAUGUUGACAGUACGA [Malc #30 mod 7] (puzzle: Brourd's mod of Exclusion 4) | – | 15 nM | – | – | – | –
AUUGGGUGAGGAUAUCCAUCUGGAUCAGACUAGAUCCUGAUGGAGAAGGCACAUGAGGAUCACCCAUGUGAGUU [Eli 4x 4.34] (Eterna round: R97, puzzle: Exclusion 4) | – | – | – | 108 nM | – | 95.6 nM
AUAUACGGAGGAUAUACUUGAGGAUCACCCAAGUGGAGUCCCGUUUGGGCGGUAAAUAGUAGAAGGCCGUCCCA [jl-ex3-4.44 ViennaUCT mod] (Eterna round: R97, puzzle: Exclusion 3) | – | – | – | 16.8 nM | – | 12.3 nM
CUGAGCUGAGGAUAUACAUGAGGAUCACCCAUGUGUUGGAGCUUGCGUACAGGCAGAUGUAGAAGGCAGUUCGG [JL-ex3-3.32 Brourd mod] (puzzle: Exclusion 3) | – | 19.5 nM | – | – | – | –
CCAUGUUAGCAGGAUAUGCAAUUAUUCUUUUACGCAGAAGGGCUUACAUGAGGAUCACCCAUGUAACAUUUCAU [JR_E6_Sub082] (puzzle: Exclusion 6) | – | 17.2 nM | – | – | – | –
UUGAUUCAUUCCUCUAUAAACAUGAGGAUCACCCAUGUAAGUGAGGAUAUAGUUGGAGUUGUAUACUAGAAGGCACUUAGUUUU [JR_ExcNG3_Sub048] (Eterna round: R96, puzzle: Exclusion NG 3) | – | – | – | 26 nM | 8.29 nM | 13 nM
GGGCUGUCAGGAUAUGGGCCCGGGCCCGAAAGGGCCCGGGCCCAGAAGGGACAUGAGGAUCACCCAUGUGGCCC [-51.3, -50.3 kcal, A 22%] (Eterna round: R97, puzzle: Exclusion 4) | – | – | – | 43 nM | – | 37.7 nM
AAGUACCGUCACGAUAGUGAUGGUACAACAAGCAAAUAUACAUGAGGAUCACCCAUGUCCUCUUUUGCUCGUCUUGU [Sensor 3] (puzzle: Sensor v3, turn-off variant 2) | 798 nM | 237 nM | 900 nM | – | – | –
GCACGGAGUGUAGGAUAUCUGUGCGAUUAGCUCAGAGAAGGACACAUGAGGAUCACCCAUGUGUAACUCAAUACUCAUCCGUGC [Eli exng1 - 070] (Eterna round: R96, puzzle: Exclusion NG 1) | – | – | – | 8.06 nM | 9.18 nM | 13.9 nM
GUAGAGUGAGGAUAUACGAGAUCGAAAGAUCAACGAUCCAAACAUGAGGAUCACCCAUGUAGAAGGCACUCUAC [Eli x2 4.008] (Eterna round: R97, puzzle: Exclusion 2) | – | – | – | 270 nM | – | 27.1 nM
UAUAAUACAUAGGAUAUCGAAAUAAUCAUUUAACGAGAAGGAUGAACAUGAGGAUCACCCAUGUGGUAUCAUGG [Mat - Exclusion 6 - JL Mod - D11] (puzzle: Exclusion 6) | 379 nM | 328 nM | 319 nM | – | – | –
ACAUGAGGAUCACCCAUGUGGGUUCUCCAGCAUAAUAAGAGGUAGGAUAUGCAGUCGCCGAAGGAGCAGAAGGACCGCGUUUAU [Eternabot solution 50] (Eterna round: R96, puzzle: Exclusion NG 3) | – | – | – | 67.1 nM | 29.7 nM | 43.5 nM
CUUCGUAUAGAGGAUAUAGGUUACUACGGUAUCCUAGAAGGCUGUACAUGAGGAUCACCCAUGUACUUCAGAUC [Exclusion 6 - B - 13:d] (puzzle: Exclusion 6) | – | 12.2 nM | – | – | – | –
AAGGAACGAGGAUAUGCAGGUUGAGCUCGAGUUCGACCGGAACAUGAGGAUCACCCAUGUAGAAGGUGUAUCCC [Vedibe] (puzzle: Exclusion 2) | – | 24 nM | – | – | – | –

Source: the supplement of paper PMC9170038
